The target of one experiment is T1, ECF28_1088.
T1 chain: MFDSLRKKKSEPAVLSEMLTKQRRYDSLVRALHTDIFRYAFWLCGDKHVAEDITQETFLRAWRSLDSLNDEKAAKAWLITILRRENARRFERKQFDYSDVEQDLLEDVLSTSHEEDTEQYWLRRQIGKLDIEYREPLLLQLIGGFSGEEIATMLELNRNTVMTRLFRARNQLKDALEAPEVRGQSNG

For another experiment, the target named is T2, ECF01_3473.
T2 chain: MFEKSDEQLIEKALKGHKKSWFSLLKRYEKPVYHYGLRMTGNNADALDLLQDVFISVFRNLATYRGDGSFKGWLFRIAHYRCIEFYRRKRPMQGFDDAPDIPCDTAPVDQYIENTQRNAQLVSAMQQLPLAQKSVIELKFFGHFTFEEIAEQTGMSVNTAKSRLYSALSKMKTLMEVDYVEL

For another experiment, the target named is T3, ECF25_1645.
T3 chain: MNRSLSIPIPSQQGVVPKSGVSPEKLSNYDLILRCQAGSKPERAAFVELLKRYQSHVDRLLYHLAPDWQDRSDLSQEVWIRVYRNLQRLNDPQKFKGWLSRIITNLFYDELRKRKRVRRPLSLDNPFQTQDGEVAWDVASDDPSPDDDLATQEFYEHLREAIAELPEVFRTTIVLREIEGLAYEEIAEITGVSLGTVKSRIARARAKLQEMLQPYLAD

Another experiment addresses T4, ECF03_1198.
T4 chain: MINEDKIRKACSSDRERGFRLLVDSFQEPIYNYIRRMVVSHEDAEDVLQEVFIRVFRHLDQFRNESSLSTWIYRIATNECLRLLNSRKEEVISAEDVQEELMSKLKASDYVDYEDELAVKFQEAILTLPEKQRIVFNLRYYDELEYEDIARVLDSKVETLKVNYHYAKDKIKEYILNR

The next experiment addresses T5, ECF03_1244.
T5 chain: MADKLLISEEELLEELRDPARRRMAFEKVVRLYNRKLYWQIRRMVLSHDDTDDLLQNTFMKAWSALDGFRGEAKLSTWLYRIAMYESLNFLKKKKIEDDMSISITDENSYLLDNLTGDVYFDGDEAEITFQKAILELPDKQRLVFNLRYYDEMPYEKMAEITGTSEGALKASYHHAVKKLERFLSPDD

A further experiment has as its target T6, ECF15_524.
T6 chain: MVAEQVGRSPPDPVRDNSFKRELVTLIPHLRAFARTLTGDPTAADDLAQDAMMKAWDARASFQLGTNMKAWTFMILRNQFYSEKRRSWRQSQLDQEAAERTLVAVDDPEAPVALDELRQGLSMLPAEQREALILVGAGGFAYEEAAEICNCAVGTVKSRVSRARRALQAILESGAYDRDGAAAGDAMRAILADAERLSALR

The next experiment concerns the target T7, ECF02_915.
T7 chain: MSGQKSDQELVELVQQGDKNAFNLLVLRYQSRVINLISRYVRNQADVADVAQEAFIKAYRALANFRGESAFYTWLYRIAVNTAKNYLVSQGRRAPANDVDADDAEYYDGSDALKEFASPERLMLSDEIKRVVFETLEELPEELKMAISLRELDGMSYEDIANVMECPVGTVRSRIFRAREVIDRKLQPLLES

The target of a further experiment is T8, ECF37_2513.
T8 chain: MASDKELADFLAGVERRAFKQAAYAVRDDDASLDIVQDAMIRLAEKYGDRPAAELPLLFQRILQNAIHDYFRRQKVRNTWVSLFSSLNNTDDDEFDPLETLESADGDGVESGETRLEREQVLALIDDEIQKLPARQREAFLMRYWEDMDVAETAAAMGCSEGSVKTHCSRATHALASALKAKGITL

For the next experiment, the target named is T9, ECF25_1643.
T9 chain: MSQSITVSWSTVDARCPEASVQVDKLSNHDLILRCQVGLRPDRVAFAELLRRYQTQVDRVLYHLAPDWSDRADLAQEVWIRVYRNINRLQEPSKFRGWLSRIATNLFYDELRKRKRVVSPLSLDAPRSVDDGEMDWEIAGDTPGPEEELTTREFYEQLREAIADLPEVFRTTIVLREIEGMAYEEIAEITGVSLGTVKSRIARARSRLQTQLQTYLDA

A further experiment deals with T10, ECF28_1040.
T10 chain: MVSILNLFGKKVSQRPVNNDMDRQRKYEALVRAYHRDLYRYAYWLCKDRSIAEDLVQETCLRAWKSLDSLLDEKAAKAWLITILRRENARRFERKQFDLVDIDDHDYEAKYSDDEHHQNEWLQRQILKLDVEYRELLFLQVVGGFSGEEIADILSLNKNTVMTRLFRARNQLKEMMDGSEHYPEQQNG

The next experiment has as its target T11, ECF20_992.
T11 chain: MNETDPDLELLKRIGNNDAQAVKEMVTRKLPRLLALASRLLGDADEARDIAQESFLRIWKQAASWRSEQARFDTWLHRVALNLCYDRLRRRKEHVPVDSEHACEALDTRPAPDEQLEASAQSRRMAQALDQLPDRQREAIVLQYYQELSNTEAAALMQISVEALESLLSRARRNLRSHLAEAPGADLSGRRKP

The target in a further experiment is T12, ECF22_1147.
T12 chain: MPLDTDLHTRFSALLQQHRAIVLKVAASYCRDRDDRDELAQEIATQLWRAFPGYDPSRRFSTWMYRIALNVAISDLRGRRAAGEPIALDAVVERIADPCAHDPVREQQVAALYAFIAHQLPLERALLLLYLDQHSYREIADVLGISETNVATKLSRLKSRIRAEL

The target in a further experiment is T13, ECF38_1322.
T13 chain: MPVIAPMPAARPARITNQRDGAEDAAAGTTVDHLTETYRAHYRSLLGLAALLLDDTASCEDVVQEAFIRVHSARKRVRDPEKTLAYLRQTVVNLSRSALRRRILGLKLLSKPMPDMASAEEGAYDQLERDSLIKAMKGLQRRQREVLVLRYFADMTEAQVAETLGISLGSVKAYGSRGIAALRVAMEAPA

The next experiment addresses T14, ECF35_3582.
T14 chain: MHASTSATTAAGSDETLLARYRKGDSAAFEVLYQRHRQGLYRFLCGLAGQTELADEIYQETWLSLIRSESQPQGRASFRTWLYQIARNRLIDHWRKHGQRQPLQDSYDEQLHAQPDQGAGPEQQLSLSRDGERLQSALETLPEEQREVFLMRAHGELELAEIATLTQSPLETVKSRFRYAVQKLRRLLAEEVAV

Where “and” joins values, the source holds several entries; their conditions need not be identical. Equal entries are not always repeated.

B1: AS27_4265 (protein)
chain: MTGHPDVAEIADLAEGLLPTTRTTEVRQHLESCELCADVYASLTEIQGLLGTLPAPAPMPDDVAARIDAALAAEPPLGIADGTRVSRETSTPADRPAGHARPSSTGPGRKDRRRGGRRRIAVLGAVAAAAAIGIGSVVVSSLTEDSSSGNTAREQQTAIADTFSEGRLKDRVTNLVADGSAENGSRTPRSFGMESENGGETAENHVFKQPTVPECIRKGIGRDDAVIATEPGVYKGREALLVVLPDATNDTQVTAYIVETACVDQPAVGKAKILLEHSYARS
With B1, the fold repression worked out at 2.14 in the experiment with ECF28_1088; 3.99 in the experiment with ECF01_3473; 1.02 with ECF25_1645; 2.19 in the experiment with ECF03_1198; 1.38 in the experiment with ECF03_1244; 2.74 with ECF15_524. Moreover, the fold repression with ECF02_915 is 2.41; with ECF37_2513 it was 2.03; with ECF25_1643, 1.63 and 1.17; with ECF28_1040, 2.19; with ECF26_4464, 5.53; in the experiment with ECF20_992 it was 15.2. Also, the fold repression in the experiment with ECF22_1147 stood at 8.51; with ECF38_1322, 1.36; with ECF35_3582 it was 1.97.

B2: AS27_1331 (protein)
chain: MSAADKDPDKHSADADPPLTVELLADLQAGLLDDATAARIRSRVRSDPQAQQILRALNRVRRDVAAMGADPAWGPAARPAVVDSISAALRSARPNSSPGAAHAARPHVHPVRMIAGAAGLCAVATAIGVGAVVDAPPPAPSAPTTAQHITVSKPAPVIPLSRPQVLDLLHHTPDYGPPGGPLGDPSRRTSCLSGLGYPASTPVLGAQPIDIDARPAVLLVIPADTPDKLAVFAVAPHCSAADTGLLASTVVPRA
As for B2, the fold repression with ECF28_1088 was determined as 1.37; in the experiment with ECF01_3473, 2.69; in the experiment with ECF25_1645, 3.12; in the experiment with ECF03_1198 it was 3.98; in the experiment with ECF03_1244 it was 4.29; with ECF15_524 it was 3.38. Besides, the fold repression in the experiment with ECF02_915 was 2.72; in the experiment with ECF37_2513 it was 2.75; in the experiment with ECF25_1643 it was 2.81 and 2.4; with ECF28_1040, 1.5; with ECF26_4464, 3.61; in the experiment with ECF20_992, 6.81. In addition, the fold repression in the experiment with ECF22_1147 stood at 2.2; in the experiment with ECF38_1322 it was 3.98; in the experiment with ECF35_3582, 5.79.

B3: AS25_1645 (protein)
chain: MNESFSQRQTDGDRRRGGDLEMKKNHTSHQHHTDSETPMGHNFEQFQRLSAYFDGEATPAERKEIQHLLDTDPQVKQQYQQLRQLKQALQLLPIPTSISAQYLGQRVLARLRRSQLRTLSLWGSGAIAALFVAGVMGQMPRLNFDRFAKNDPDQQPTAALVETSPQGEEALVVALNRPVLQIPKLATTESP
As for B3, the fold repression was 3.89 with ECF28_1088; 7.11 with ECF01_3473; 33.7 in the experiment with ECF25_1645; 7.37 with ECF03_1198; 4.7 with ECF03_1244; 6.73 in the experiment with ECF15_524. Besides, the fold repression is 6.91 in the experiment with ECF02_915; 7.52 with ECF37_2513; 19.5 and 19.2 with ECF25_1643; 2.95 with ECF28_1040; 15.3 with ECF26_4464; 5.73 with ECF20_992. For the same molecule, the values for the fold repression in the experiment with ECF22_1147, in the experiment with ECF38_1322 and with ECF35_3582 were 7.04, 3.98 and 2.98, respectively.

Values taken from paper PMC3817407.
